Substrate: O=P(O)(O)OC[C@@H](O)[C@@H](O)[C@H](O)[C@H](O)CO
Assay: purified protein
Settings: 100 mM Tris-HCl

B1: SjaM1Pase2 (Saccharina japonica) (protein)
chain: MEQATANKDISILFDFDGTIGDTETPAMEVAFWELAPYLPDTTPDKLDNLMPEFVRDNAGKAFEFMVETVDEERKAAGMDSVEEMFAAKSEPQNMLDAVDPHRKKFGLKSFAELRAPEGGEAATLLIQQKTETVDALSKIAQPCNGVREVLAALTAATVPFCISTTSPKPRVPASITACGLDEYFPPDKVHSGESDFDPPRFKPNPSVYLKAAETEGKEPVNCIAVEDSGSGVGSASNAGVGLTVGYVGASHIPEYKKDTHAEMLMAGGRAENGKGAEIVISDMKDLLKIIDFFAGAKTAGKLAPFDFPTAMVASMQQPVWVHGKKA
Km: 20 µM
